Measurements as given in the supplement of paper PMC9170038.

test system: MS2 coat protein; assay: apparent KD of MS2 coat protein, switch ON state; designed switch direction (-1 OFF switch, 1 ON switch): -1; higher = weaker reporter binding; settings: FMN input: 0 or 200 uM; Eterna round: R93 (includes R88 designs)
How it was run: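 Designed RNA switches, transcribed on-chip from Illumina sequencing clusters, were titrated with SNAP-549-labelled MS2 coat protein from 0.7 or 1.5 nM to 3 µM in twofold steps. The solution was 100 mM Tris-HCl pH 7.5, 80 mM KCl, 4 mM MgCl2, with constant ligand or without it. Apparent KD is the median over each design's normalised cluster binding-curve fits.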

Sequence	apparent KD of MS2 coat protein [nM]
GGAAAACAUGAGGAUCACCCAUGUAAGGAUAUGCUAAAAAAGGAAAAAAACCCACCAGGCAGAAGGUACUAAAG [Janelle Amethyst 18 Mod 3 - Jieux - Exclusion 1]	22.7
AAAAAACAUGAGGAUCACCCAUGUCAGGAUAUCAUAAAAAAAAAAAAAAAAAAAAAAGUGAGAAGGGACAAAAA [exclusion1-cac1]	42.9
AAACCACAUGAGGAUCACCCAUGUGAGGAUAUGAACGAAAUAAAAUAAAAAAUAAAGUUCAGAAGGCACAAAAA [Mat - Exclusion 1 - Eli mod - D15]	17.6
AAGAAGUGAGGAUAUACAUGAAAGAAAGAAAAGAAAAGAAAACAUGAGGAUCACCCAUGUAGAAGGCACAAGAA [EteRNA is fun!]	28.7
GAUUAGGUAGGAUAUACAUGAGGAUCACCCAUGUAGGAAAAAAGCUACGAAAAAGAAUGUAGAAGGACCUAAAG [Mat - Exclusion 3 - Mayanna mod - D105]	20.5
AAAAAGGGAGGAUAUACAUGAGGAUCACCCAUGUAAAAAAAAAAAAAGGGAAAAAAAAGUAGAAGGCCCAAAAA [Apepi]	50.1
AAAAAACAUGAGGAUCACCCAUGUCAGGAUAUCCGGUUCUUGAAAAUCAAGAGGCGUUGGAGAAGGGACAUUCC [Chica Displaced 14 - Jieux - Exclusion 1]	27.9
AGUUGGCGAGGAUAUACAUGAGGAUCACCCAUGUGAGAGAAAAAAAGGAAAAAAAAAAGUAGAAGGCGCUGACA [Mat - Exclusion 3 - Lego mod - D44]	43
AUAGUACAUGAGGAUCACCCAUGUCAGGAUAUCGGAUAUGACAUGAAAAAAAUGUUAAUGAGAAGGGACUAUAA [EX1 Malc#18 Mod 1 - Jieux - Exclusion 1]	52.9
AUGAGAGCAGGAUAUGCAGGUGAGCCGGAAGAAAGAAGAAGACAUGAGGAUCACCCAUGUAGAAGGGCUAGCCC [Madiesxe]	41.9
AAGAAGUCAGGAUAUGCGAAGGCGUCUGAUAGACGAGGCUAGCAGAAGGGACAUGAGGAUCACCCAUGUAAAGA [Mat - Exclusion 4 - D83]	45
AGGGAGUAAGGAUAUGAGAAAGAAAAAGAAGGAAAAAAAGAUCAGAAGGUACAUGAGGAUCACCCAUGUAAAAA [milkweed 9]	35.6
GCUUGGGAAGGAUAUACAUGAGGAUCACCCAUGUGAGAGAAAAAAGUGAGAAAGAAAAGUAGAAGGUCUUGAGG [salish99-ex3-84]	69.5
AAAAAAGCAGGAUAUACGUACAUGUCAAAAGACGUGAAGGGACAUGAGGAUCACCCAUGUAGAAGGGUUAAGAA [JL Stem Breaker 17]	220
AGUCAUACAGGAUAUACAUGAGGAUCACCCAUGUUUAUCCUAAAAAAAUAAAAAACAUGUAGAAGGGUAUGACA [EX3 216: Super Stable 16]	12.9
AAAAAGGUAGGAUAUACGAAAAAAAAGGGUAAAAUAAAUAAACAUGAGGAUCACCCAUGUAGAAGGACCAAAAA [Mat - Exclusion 2 - Tesla mod - D38]	23.5
AAAAAGUGAGGAUAUACAUGAGGAUCACCCAUGUAAUAAAAAAAAAGGGUGGAAGAAAGUAGAAGGCACCAAAA [Ex 3 May 48]	48.2
GAAAAGUUAGGAUAUACAGAUAAAAAAACGAAAAAAAAUCUGUAGAAGGAACAUGAGGAUCACCCAUGUAAAAA [Mat - Exclusion 4 - Mayanna - D104]	30.7
AAUUAGUGAGGAUAUACGGGAGGGAGGGAGGGAGGGAGGGAGUAGAAGGCACAUGAGGAUCACCCAUGUAAUUA [The West [Loop] is Red]	20.8
AAAAAGUGAGGAUAUACAUGAGGAUCACCCAUGUGUAUAAAAAAUUACACGAAAGAAUGUAGAAGGCACUAAAA [JL Mayanne Mod 3]	18.2
AAAAUACAUGAGGAUCACCCAUGUGAGGAUAUCUUAAAGGGAAUAAAAUAACUCAAAAAGAGAAGGCGCAAAAA [Ex 1 May 30]	34.6
UUUACGUGAGGAUAUGCGAAUAGAACGUAAGUCAUACAGACGCAGAAGGCACAUGAGGAUCACCCAUGUGAACC [JR_Exc004_Sub312]	20

Sequence	apparent KD of MS2 coat protein [nM]
AAAAAGAGAGGAUAUGCAGGAGAAAAAAAAAAAAAAAAAAAACAUGAGGAUCACCCAUGUAGAAGGCUCAAAAA [Ecls2-II]	28.4
AGUUGGCGAGGAUAUACAUGAGGAUCACCCAUGUGAGAGUAAGAAGUGAGAAAGAGAAGUAGAAGGCGCUAACA [Ruby 54]	48.4
AACAUGUGAGGAUAUAUAAGAAAAGAAAAGAAAGAAAAGAAAUAGAAGGCACAUGAGGAUCACCCAUGUAAGAA [EteRNA is fun!]	30
AAGAAGCGAGGAUAUACAUGAGGAUCACCCAUGUAAAAGAAAGAAAAGGGAAAGAAAAGUAGAAGGCGCAAGAA [Nebpehtire Ahmose I, Ahmosis I]	53
AGCUAGUCAGGAUAUACGAACAUGUCAAAAGACGUGAAAAAACAUGAGGAUCACCCAUGUAGAAGGGACUAGCA [Mat - Exclusion 2 - JL mod - D11]	18.8
AACAGGUUAGGAUAUGUGUAACAAAUAAAAAAAAUAUAAACACAGAAGGAACAUGAGGAUCACCCAUGUUAACA [May 28]	24.4
AAAAAGUCAGGAUAUACAUGAGGAUCACCCAUGUGAAAGAACGAAAAACGAAAAGCAAGUAGAAGGGACAAAAA [Ruby 78]	13.1
AACUGACAUGAGGAUCACCCAUGUCAGGAUAUGAUAUGUAAAAAAUAAAAAAUACUUAUCAGAAGGGACAUGAA [Design 43: Sub-opt C]	15.8
GAUAAACAUGAGGAUCACCCAUGUAAGGAUAUGCGCUAACUAACUAACUAACUAACUAGCAGAAGGUACACUAC [The End]	24.4
AGCUAGUCAGGAUAUACGAAAAUGUACGAAGCUGAGAAGGGACAUGAGGAUCACCCAUGUAGAAGGGACUAGCA [Diamond 35]	39.2
AAAAAACAUGAGGAUCACCCAUGUGAGGAUAUGCGAAAAUAAAAUAAAAUAAUAAAAAGCAGAAGGCACACCAA [58%, Sh'dynasty, 2]	22
AAAAAACAUGAGGAUCACCCAUGUGAGGAUAUCGAAAAGAAAAGAAAAGAAAGAAGAACGAGAAGGCACAAGAA [Sneferu]	36.6
AAGAAGUGAGGAUAUCGAAGACAGACGAAAAGUCUGUCAAACGAGAAGGCACAUGAGGAUCACCCAUGUAAGAA [What have we learned so far?]	34.8
AAGGGACAUGAGGAUCACCCAUGUCAGGAUAUGAUGCGAAUAAAGAAAGAAGAAAGCAUCAGAAGGGACAAAAA [58%, Disencluded 3, 3]	33.7
GAGAAUGAAGGAUAUACAUGAGGAUCACCCAUGUAAGAGAAAGAGGGAAAAGAGAAAAGUAGAAGGUCAAAGAG [Ruby 73]	23.8
ACAAGAUCAGGAUAUACAUGAGGAUCACCCAUGUAAAUCAAAAAGGGACUUACUUAAUGUAGAAGGGAUCAUGU [EX3 279: Random 15]	28.6
AAAAAGUGAGGAUAUGUCAAAAGUCACAAAAGUGACAAAAGACAGAAGGCACAUGAGGAUCACCCAUGUGGAAA [Mod of Eli - Late G + early G segment 2]	32.1
AGUUGGCGAGGAUAUACAUGAGGAUCACCCAUGUGAGAGAAAAAAGUGAGAAAGAAAAGUAGAAGGCGCUGACA [salish99-ex3-05]	49.2
AAAAUACAUGAGGAUCACCCAUGUCAGGAUAUUCCUGCAGCCUUGAAUAAGGGCUGGUGAAGAAGGGACGGUGA [Ancele]	33.4
AAUAGUGAAGGAUAUACAGGAGAAGAAAGAUAAAAGAAAGAACAUGAGGAUCACCCAUGUAGAAGGUCAGAAGU [JR_Exc002_Sub1229]	27.1
AAAGGACGAGGAUAUACAUGAGGAUCACCCAUGUAAAAAACAUAAGAAAAGAAGUUAUGUAGAAGGCGUCCAAA [69%, Moding Meechl, 13]	16.4
AGCUAGUCAGGAUAUACAAAAUGAUUGCGAAAGCAAUCAACACAUGAGGAUCACCCAUGUAGAAGGGACUAGCA [Mat - Exclusion 2 - JL-Eli mod - D43]	18.5
